Laboratory results published in patent publication US12269859B2, “Synthetic immune receptors and methods of use thereof” (Angeles Therapeutics, Inc., priority 2016, dated 2025).

B1: 022817-U05 (protein)
chain: MALPVTALLLPLALLLHAARPDIQMNQSPSSLSASLGDTITITCHASQNINVWLSWYQQKPGNIPKLLIYKASNLHTGVPSRFSGSGSGTGFTITISSLQPEDIATYYCQQGQSYPWTFGGGTKLEIKRLEGKPIPNPLLGLDSTGSGEDLKNVFPPEVAVFEPSKAEIAHTQKATLVCLATGFYPDHVELSWWVNGKEVHSGVCTDPQPLKEQPALNDSRYCLSSRLRVSATFWQNPRNHFRCQVQFYGLSENDEWTQDRAKPVTQIVSAEAWGRADCGITSASYHQGVLSATILYEILLGKATLYAVLVSALVLMAMVKRKDSRGRAKRSGSGATNFSLLKQAGDVEENPGPTSMDWIWRILFLVGAATGAHSFEEVQLQQSGPELVKPGASVKISCKASGYSFTGYFMNWVKQSHGKSLEYIGRFNPYNGETLYNQKFKGKATLTVDKSSSTVHMELLSVTSEDSAVYYCGRSGNDDAMDYWGQGTSVTVSSATREQKLISEEDGSGIQNPDPAVYQLRDSKSSDKSVCLFTDFDSQTNVSQSKDSDVYITDKCVLDMRSMDFKSNSAVAWSNKSDFACANAFNNSIIPEDTFFPSSDVPCDVKLVEKSFETDTNLNFQNLSVIGFRILLLKVAGFNLLMTLRLWSSRAKRSGSGVKQTLNFDLLKLAGDVESNPGPSRGHMTEYKPTVRLATRDDVPRAVRTLAAAFADYPATRHTVDPDRHIERVTELQELFLTRVGLDIGKVWVADDGAAVAVWTTPESVEAGAVFAEIGPRMAELSGSRLAAQQQMEGLLAPHRPKEPAWFLATVGVSPDHQGKGLGSAVVLPGVEAAERAGVPAFLETSAPRNLPFYERLGFTVTADVEVPEGPRTWCMTRKPGA
modifications: Polynucleotide encoding a Synthetic Immune Receptor (SIR)
B2: 010417-U02 (protein)
chain: MALPVTALLLPLALLLHAARPLEGKPIPNPLLGLDSTGSGEDLKNVFPPEVAVFEPSKAEIAHTQKATLVCLATGFYPDHVELSWWVNGKEVHSGVCTDPQPLKEQPALNDSRYCLSSRLRVSATFWQNPRNHFRCQVQFYGLSENDEWTQDRAKPVTQIVSAEAWGRADCGITSASYHQGVLSATILYEILLGKATLYAVLVSALVLMAMVKRKDSRGRAKRSGSGATNFSLLKQAGDVEENPGPTSMALPVTALLLPLALLLHAARPDQIVLTQSPAIMSASPGEKVTISCSASSSVSYMYWYQQKPGSSPKPWIYRTSNLASGVPARFSGSGSGTSYSLTISNMEAEDAAAYYCQQYHSYPTTFGGGTKLEVKGGGGSGGGGSGGGGSEVQLVESGGGLVQPKGSLKLSCAASGFSFNTYAMNWVRQAPGKGLEWIAHIRSKSNNFATYYADSVKDRFSISRDASENILFLQMNNLKTEDTAMYYCVRQGGDFPMDYWGQGTSVTVSSTREAAAKEIVLTQSPATLSLSPGERATLSCSASSSVSYMHWYQQKPGQAPRLLIYDTSKLASGIPARFSGSGSGTDFTLTISSLEPEDVAVYYCFQGSVYPFTFGQGTKLEIKRGGGGSGGGGSGGGGSQVQLQESGPGLVKPSQTLSLTCTVSGGSISTSGMGVGWIRQHPGKGLEWIGHIWWDDDKRYNPALKSRVTISVDTSKNQFSLKLSSVTAADTAVYYCARMELWSYYFDYWGQGTLVTVSSTREQKLISEEDGSGIQNPDPAVYQLRDSKSSDKSVCLFTDFDSQTNVSQSKDSDVYITDKCVLDMRSMDFKSNSAVAWSNKSDFACANAFNNSIIPEDTFFPSSDVPCDVKLVEKSFETDTNLNFQNLSVIGFRILLLKVAGFNLLMTLRLWSSRAKRSGSGVKQTLNFDLLKLAGDVESNPGPSRGHMTEYKPTVRLATRDDVPRAVRTLAAAFADYPATRHTVDPDRHIERVTELQELFLTRVGLDIGKVWVADDGAAVAVWTTPESVEAGAVFAEIGPRMAELSGSRLAAQQQMEGLLAPHRPKEPAWFLATVGVSPDHQGKGLGSAVVLPGVEAAERAGVPAFLETSAPRNLPFYERLGFTVTADVEVPEGPRTWCMTRKPGA
B3: 112916-C01 (protein)
chain: MALPVTALLLPLALLLHAARPDVVMTQTPLTLSVTIGQPASISCKSSQSLLDSDGKTYLHWLLQRPGQSPKRLIFLVSKLDSGVPDRFTGSGSGTDFTLKISRVEAEDLGVYYCWQGTHFPQTFGGGTKLEIKLEGKPIPNPLLGLDSTGSGEDLKNVFPPEVAVFEPSKAEIAHTQKATLVCLATGFYPDHVELSWWVNGKEVHSGVCTDPQPLKEQPALNDSRYCLSSRLRVSATFWQNPRNHFRCQVQFYGLSENDEWTQDRAKPVTQIVSAEAWGRADCGITSASYHQGVLSATILYEILLGKATLYAVLVSALVLMAMVKRKDSRGRAKRSGSGATNFSLLKQAGDVEENPGPTSMDWIWRILFLVGAATGAHSFEVQLQESGPDLVKPSQSLSLTCTVTGYSITSGYSWHWIRQFPGNKLEWMGYIHYSGDTDYNPSLKSRFSITRDTSKNQFFLQLNSVTTEDTATYYCATPGGFVYWGQGTLVTVSSTREQKLISEEDGSGIQNPDPAVYQLRDSKSSDKSVCLFTDFDSQTNVSQSKDSDVYITDKCVLDMRSMDFKSNSAVAWSNKSDFACANAFNNSIIPEDTFFPSSDVPCDVKLVEKSFETDTNLNFQNLSVIGFRILLLKVAGFNLLMTLRLWSSRAKRSGSGVKQTLNFDLLKLAGDVESNPGPSRGHMTEYKPTVRLATRDDVPRAVRTLAAAFADYPATRHTVDPDRHIERVTELQELFLTRVGLDIGKVWVADDGAAVAVWTTPESVEAGAVFAEIGPRMAELSGSRLAAQQQMEGLLAPHRPKEPAWFLATVGVSPDHQGKGLGSAVVLPGVEAAERAGVPAFLETSAPRNLPFYERLGFTVTADVEVPEGPRTWCMTRKPGA
modifications: Polynucleotide encoding a Synthetic Immune Receptor (SIR)
B4: 010417-Y05 (protein)
chain: MALPVTALLLPLALLLHAARPLEGKPIPNPLLGLDSTGSGEDLKNVFPPEVAVFEPSKAEIAHTQKATLVCLATGFYPDHVELSWWVNGKEVHSGVCTDPQPLKEQPALNDSRYCLSSRLRVSATFWQNPRNHFRCQVQFYGLSENDEWTQDRAKPVTQIVSAEAWGRADCGITSASYHQGVLSATILYEILLGKATLYAVLVSALVLMAMVKRKDSRGRAKRSGSGATNFSLLKQAGDVEENPGPTSMALPVTALLLPLALLLHAARPDQIVLTQSPAIMSASPGEKVTISCSASSSVSYMYWYQQKPGSSPKPWIYRTSNLASGVPARFSGSGSGTSYSLTISNMEAEDAAAYYCQQYHSYPTTFGGGTKLEVKGGGGSGGGGSGGGGSEVQLVESGGGLVQPKGSLKLSCAASGFSFNTYAMNWVRQAPGKGLEWIAHIRSKSNNFATYYADSVKDRFSISRDASENILFLQMNNLKTEDTAMYYCVRQGGDFPMDYWGQGTSVTVSSTREAAAKEIVMTQSPATLSLSPGERATLSCRASQDISKYLNWYQQKPGQAPRLLIYHTSRLHSGIPARFSGSGSGTDYTLTISSLQPEDFAVYFCQQGNTLPYTFGQGTKLEIKGGGGSGGGGSGGGGSQVQLQESGPGLVKPSETLSLTCTVSGVSLPDYGVSWIRQPPGKGLEWIGVIWGSETTYYNSSLKSRVTISKDNSKNQVSLKLSSVTAADTAVYYCAKHYYYGGSYAMDYWGQGTLVTVSSTREQKLISEEDGSGIQNPDPAVYQLRDSKSSDKSVCLFTDFDSQTNVSQSKDSDVYITDKCVLDMRSMDFKSNSAVAWSNKSDFACANAFNNSIIPEDTFFPSSDVPCDVKLVEKSFETDTNLNFQNLSVIGFRILLLKVAGFNLLMTLRLWSSRAKRSGSGVKQTLNFDLLKLAGDVESNPGPSRGHMTEYKPTVRLATRDDVPRAVRTLAAAFADYPATRHTVDPDRHIERVTELQELFLTRVGLDIGKVWVADDGAAVAVWTTPESVEAGAVFAEIGPRMAELSGSRLAAQQQMEGLLAPHRPKEPAWFLATVGVSPDHQGKGLGSAVVLPGVEAAERAGVPAFLETSAPRNLPFYERLGFTVTADVEVPEGPRTWCMTRKPGA
B5: 101817-E05 (protein)
chain: MALPVTALLLPLALLLHAARPQSVVTQPPSVSAAPGQKVTISCSGSSSNIGNNYVSWYQQLPGTAPKLLIYDNNKRPSGIPDRFSASKSGTSATLGITGLQTRDEADYYCGTWDSSLSAWVFGGGTKLTVLGLEIQNPDPAVYQLRDSKSSDKSVCLFTDFDSQTNVSQSKDSDVYITDKCVLDMRSMDFKSNSAVAWSNKSDFACANAFNNSIIPEDTFFPSSDVPCDVKLVEKSFETDTNLNFQNLSVIGFRILLLKVAGFNLLMTLRLWSSRAKRSGSGVKQTLNFDLLKLAGDVESNPGPTSMDWIWRILFLVGAATGAHSFEQVQLVQSGAEVKKPGSSVKVSCKASGDTFSSYYISWVRQAPGQGLEWMGRIIPILGIANYAQKYQGRVTLSADKSTSTSYMELNSLSSEDTAVYYCALDWSYSIDYWGQGTLVTVSSTREDLKNVFPPEVAVFEPSKAEIAHTQKATLVCLATGFYPDHVELSWWVNGKEVHSGVCTDPQPLKEQPALNDSRYCLSSRLRVSATFWQNPRNHFRCQVQFYGLSENDEWTQDRAKPVTQIVSAEAWGRADCGITSASYHQGVLSATILYEILLGKATLYAVLVSALVLMAMVKRKDSRGRAKRSGSGATNFSLLKQAGDVEENPGPSRGHMTEYKPTVRLATRDDVPRAVRTLAAAFADYPATRHTVDPDRHIERVTELQELFLTRVGLDIGKVWVADDGAAVAVWTTPESVEAGAVFAEIGPRMAELSGSRLAAQQQMEGLLAPHRPKEPAWFLATVGVSPDHQGKGLGSAVVLPGVEAAERAGVPAFLETSAPRNLPFYERLGFTVTADVEVPEGPRTWCMTRKPGA

Test system: target antigen-expressing cell line
Test: Jurkat NFAT-GFP assay, coculture with target cell lines expressing the respective target antigen (summary Table 10A)
Format: cell-based, human
Parameters: key: The signs +/−, +, 2+ etc. after the name of the cell lines indicate the relative degree of positivity on the Jurkat-NFAT-GFP assay as measured by the % GFP positive cells; +: relative degree of positivity on the Jurkat-NFAT-GFP assay as measured by the % GFP positive cells; 2+: relative degree of positivity on the Jurkat-NFAT-GFP assay as measured by the % GFP positive cells
Method in brief: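 Positivity is scored when SIR-expressing reporter Jurkat cells show more GFP-positive cells than parental controls after coculture with the antigen-bearing line. Effector-to-target ratio is about 1:2, coculture lasts roughly 4–18 hours, and GFP is quantified by FACS.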

Molecule | NFAT-GFP ASSAY Positive Cell lines (coculture with HEL cells) | NFAT-GFP ASSAY Positive Cell lines (coculture with NALM6 cells) | NFAT-GFP ASSAY Positive Cell lines (coculture with RAJI cells) | NFAT-GFP ASSAY Positive Cell lines (coculture with U266 cells) | further results
B1 |  |  |  |  | NFAT-GFP ASSAY Positive Cell lines (coculture with Jurkats-TCRgd-SIR cells): Jurkats-TCRgd-SIR
B2 | +/− | + | RAJI (+), NALM6 |  | 
B3 |  |  |  | U266 (+/−), L363 | NFAT-GFP ASSAY Positive Cell lines (coculture with L363 cells): (+)
B4 | (+), HEL (+) | (+), HEL (+) | RAJI (+), NALM6 |  | 
B5 |  |  |  | U266(+/−) | 
